{"source": "patent US20220341931A1", "key": {"[1]": {"biological_target": "Epstein-Barr virus (Herpesvirus 4) EBV Glycoprotein gp350/EBV GP350 Protein (His Tag) (Sino Biologic (Epstein-Barr virus (Herpesvirus 4)) (UniProt P03200))", "sequence (P03200 1-470)": "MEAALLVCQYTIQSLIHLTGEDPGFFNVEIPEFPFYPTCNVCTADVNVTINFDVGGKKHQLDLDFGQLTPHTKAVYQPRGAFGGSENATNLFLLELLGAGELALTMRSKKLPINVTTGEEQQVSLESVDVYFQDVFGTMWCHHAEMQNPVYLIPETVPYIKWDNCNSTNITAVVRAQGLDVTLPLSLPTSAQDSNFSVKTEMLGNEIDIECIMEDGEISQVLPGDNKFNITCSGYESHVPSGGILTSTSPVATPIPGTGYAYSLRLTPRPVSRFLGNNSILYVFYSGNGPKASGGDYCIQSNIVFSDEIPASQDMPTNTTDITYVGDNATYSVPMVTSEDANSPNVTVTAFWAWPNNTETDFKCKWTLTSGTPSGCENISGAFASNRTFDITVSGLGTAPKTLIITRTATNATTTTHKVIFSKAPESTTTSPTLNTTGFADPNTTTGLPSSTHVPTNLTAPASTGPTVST"}, "[2]": {"biological_target": "Human Metapneumovirus (hMPV) B Glycoprotein G, His-Tag (HEK293) (Native Antigen Company #REC31948-10 (Human Metapneumovirus (hMPV) B))"}, "[3]": {"biological_target": "Human cytomegalovirus (HCMV) Glycoprotein B/gB Protein (His Tag) (Sino Biological 10202-V08H1), as b (Human cytomegalovirus (HCMV))"}, "[4]": {"biological_target": "Influenza B [B/Washington/02/2019 (B/Victoria lineage)-like virus] Hemagglutinin (HA), His-Tag (Nati (Influenza B [B/Washington/02/2019 (B/Victoria lineage)-like virus]))"}, "[5]": {"biological_target": "SARS-CoV-2 (2019-nCoV) Spike S1-His Recombinant Protein (Sino Biological Cat: 40591-VO8H), as barcode-linked antigen (SARS-CoV-2 (2019-nCoV)) (UniProt P0DTC2)"}, "[6]": {"biological_target": "Varicella-Zoster Virus Heterodimer gE/gI (HEK293), His-tag (Native Antigen Company #REC31907-100), a (Varicella-Zoster Virus) (UniProt P09259)", "sequence (P09259 31-538 limits assumed, chain 1 of 2)": "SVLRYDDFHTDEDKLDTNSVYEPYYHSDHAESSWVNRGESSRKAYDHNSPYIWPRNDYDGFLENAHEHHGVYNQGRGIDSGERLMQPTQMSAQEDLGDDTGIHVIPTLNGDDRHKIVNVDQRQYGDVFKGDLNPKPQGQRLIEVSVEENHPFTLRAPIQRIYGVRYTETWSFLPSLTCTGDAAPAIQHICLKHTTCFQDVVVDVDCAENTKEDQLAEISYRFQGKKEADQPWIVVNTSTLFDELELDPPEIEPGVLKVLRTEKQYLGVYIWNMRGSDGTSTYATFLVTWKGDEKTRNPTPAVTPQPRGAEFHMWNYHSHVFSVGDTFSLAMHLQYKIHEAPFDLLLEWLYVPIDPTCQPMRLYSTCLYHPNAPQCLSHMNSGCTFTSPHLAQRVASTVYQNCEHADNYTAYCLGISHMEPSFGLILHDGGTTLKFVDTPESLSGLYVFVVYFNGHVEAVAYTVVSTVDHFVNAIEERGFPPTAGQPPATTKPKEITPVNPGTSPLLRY", "sequence (P09258 18-295 limits assumed, chain 2 of 2, further chain)": "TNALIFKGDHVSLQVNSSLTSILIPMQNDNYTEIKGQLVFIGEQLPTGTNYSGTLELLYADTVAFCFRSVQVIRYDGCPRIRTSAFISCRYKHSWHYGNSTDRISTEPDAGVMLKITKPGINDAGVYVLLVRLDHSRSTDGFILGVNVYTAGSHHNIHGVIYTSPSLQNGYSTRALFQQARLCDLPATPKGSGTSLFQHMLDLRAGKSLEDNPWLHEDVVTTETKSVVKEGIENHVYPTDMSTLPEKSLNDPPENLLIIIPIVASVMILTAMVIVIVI"}, "[7]": {"biological_target": "SARS-CoV-2 (2019-nCoV) Spike S1-His Recombinant Protein (Sino Biological Cat: 40591-VO8H), as barcode-linked antigen (SARS-CoV-2 (2019-nCoV)) (UniProt P0DTC2)", "remark": "listed apart in the source"}}}
{"substance": "SARS-CoV-2 (2019-nCoV) Nucleocapsid Antibody, Rabbit MAb (Sino Biological Cat: 40143-R019)", "values": [{"measurement": "barcode sequence counts (EBV)", "setting": "[1]", "result": 1080, "unit": "counts"}, {"measurement": "barcode sequence counts (hMPV)", "setting": "[2]", "result": 201, "unit": "counts"}, {"measurement": "barcode sequence counts (HCMV)", "setting": "[3]", "result": 836, "unit": "counts"}, {"measurement": "barcode sequence counts (FLU B)", "setting": "[4]", "result": 185, "unit": "counts"}, {"measurement": "barcode sequence counts (COVID Spike)", "setting": "[5]", "result": 900, "unit": "counts"}, {"measurement": "barcode sequence counts (VZV)", "setting": "[6]", "result": 200, "unit": "counts"}, {"measurement": "Spike #/Nuc #", "setting": "[7]", "result": 0.291}]}
